Results reported in patent US20190032033A1 (HEPTARES THERAPEUTICS, published 2019).
Changes are numbered by the printed parent chain. Where two headings read alike, the source gives them in different places.

What was measured:
[1] = target: T1, C-terminally truncated human A2AR (residues 1-317, N154A) (human, UniProt P29274 1-317); assay: thermostability assay, DM-solubilised NECA-bound A2AR
T1 construct: range 1-317; C-terminal TEV site and His10 tag kept (used for immobilisation)

[2] = target: T2, thioredoxin-A2AR fusion protein (human, UniProt P29274 6-316); assay: analytical SEC of purified NECA-bound A2AR mixed with mini-Gs/q (1:1.2 molar ratio) and Coomassie-stained SDS-PAGE of fractions 10-20
T2 construct: range 6-316; gp67 leader is cleavable; not shown: His10 tag, TEV protease cleavage site and thioredoxin

[3] = target: rat neurotensin receptor NTSR1 (residues 43-396) (rat, UniProt P20789 43-396); assay: cell-based or functional assay
[4] = target: T1, C-terminally truncated human A2AR …; assay: cell-based or functional assay
[5] = target: T3, human adenosine A2A receptor (residues 1-308, N154A) (human, UniProt P29274 1-308); assay: cell-based or functional assay
[6] = target: T3, human adenosine A2A receptor (residues …); assay: cell-based or functional assay; remark: listed apart in the source
[7] = target: T2, thioredoxin-A2AR fusion protein; assay: analytical SEC of purified NECA-bound A2AR mixed with mini-Gs/q (1:1.2 molar ratio) and Coomassie-stained SDS-PAGE of fractions 10-20; remark: listed apart in the source
[8] = target: T4, human angiotensin II type 1 receptor AT1R (residues 1-359) (human, UniProt P30556 1-359); assay: cell-based or functional assay
T4 sequence (looked up): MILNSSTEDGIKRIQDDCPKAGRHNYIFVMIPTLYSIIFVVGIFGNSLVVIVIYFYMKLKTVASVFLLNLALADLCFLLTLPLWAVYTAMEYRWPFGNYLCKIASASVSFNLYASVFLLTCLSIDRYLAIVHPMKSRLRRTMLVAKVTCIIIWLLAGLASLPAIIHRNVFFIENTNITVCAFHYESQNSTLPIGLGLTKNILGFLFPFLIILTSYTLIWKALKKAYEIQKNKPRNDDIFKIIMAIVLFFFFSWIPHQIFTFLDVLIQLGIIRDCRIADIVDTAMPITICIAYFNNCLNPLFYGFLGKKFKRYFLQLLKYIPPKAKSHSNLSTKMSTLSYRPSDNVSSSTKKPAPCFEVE

[9] = target: β1AR-WT (wild type-like turkey β1 adrenergic receptor construct) (turkey, UniProt P07700 33-423, limits assumed); assay: cell-based or functional assay
Chain of β1AR-WT (wild type-like turkey β1 adrenergic receptor construct) (P07700 other isoform, or with tags, fused parts or gaps limits assumed): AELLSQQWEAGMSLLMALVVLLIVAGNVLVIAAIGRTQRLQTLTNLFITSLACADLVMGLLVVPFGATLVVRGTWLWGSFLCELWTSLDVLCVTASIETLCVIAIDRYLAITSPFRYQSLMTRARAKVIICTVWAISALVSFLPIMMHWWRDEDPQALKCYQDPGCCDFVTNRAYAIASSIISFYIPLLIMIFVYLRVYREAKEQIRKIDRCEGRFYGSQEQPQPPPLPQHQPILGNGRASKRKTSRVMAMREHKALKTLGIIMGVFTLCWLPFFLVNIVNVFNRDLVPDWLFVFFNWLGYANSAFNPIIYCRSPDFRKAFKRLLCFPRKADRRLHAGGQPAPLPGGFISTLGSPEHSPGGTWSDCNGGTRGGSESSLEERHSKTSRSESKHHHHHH

T1 sequence (P29274 1-317 N154A): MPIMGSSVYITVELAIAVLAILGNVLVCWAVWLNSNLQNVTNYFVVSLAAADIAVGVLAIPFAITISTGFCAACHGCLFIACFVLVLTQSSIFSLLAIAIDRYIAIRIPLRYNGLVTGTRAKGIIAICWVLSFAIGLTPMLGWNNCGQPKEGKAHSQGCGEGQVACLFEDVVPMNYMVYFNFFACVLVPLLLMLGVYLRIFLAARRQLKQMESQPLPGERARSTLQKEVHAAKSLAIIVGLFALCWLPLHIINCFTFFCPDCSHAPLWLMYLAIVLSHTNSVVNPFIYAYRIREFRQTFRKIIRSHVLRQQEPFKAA
T3 sequence (P29274 1-308 N154A): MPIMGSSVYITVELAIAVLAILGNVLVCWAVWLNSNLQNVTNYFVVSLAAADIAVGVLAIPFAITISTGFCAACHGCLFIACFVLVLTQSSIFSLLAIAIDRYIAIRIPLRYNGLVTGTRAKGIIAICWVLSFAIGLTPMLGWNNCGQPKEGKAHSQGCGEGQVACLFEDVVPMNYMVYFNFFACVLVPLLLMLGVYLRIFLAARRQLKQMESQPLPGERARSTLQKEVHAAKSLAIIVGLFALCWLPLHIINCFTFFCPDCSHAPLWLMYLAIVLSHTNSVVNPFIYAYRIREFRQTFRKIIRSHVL
Chain of rat neurotensin receptor NTSR1 (residues 43-396) (P20789 43-396 limits assumed): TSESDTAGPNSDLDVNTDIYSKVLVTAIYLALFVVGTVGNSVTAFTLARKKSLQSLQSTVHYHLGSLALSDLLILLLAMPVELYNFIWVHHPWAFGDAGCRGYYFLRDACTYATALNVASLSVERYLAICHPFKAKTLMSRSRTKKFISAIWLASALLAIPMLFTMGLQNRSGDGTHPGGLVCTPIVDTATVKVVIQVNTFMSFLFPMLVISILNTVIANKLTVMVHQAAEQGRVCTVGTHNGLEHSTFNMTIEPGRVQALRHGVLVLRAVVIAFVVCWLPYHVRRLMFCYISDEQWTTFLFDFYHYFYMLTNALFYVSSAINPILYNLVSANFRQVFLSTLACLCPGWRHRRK
T2 sequence (P29274 other isoform, or with tags, fused parts or gaps): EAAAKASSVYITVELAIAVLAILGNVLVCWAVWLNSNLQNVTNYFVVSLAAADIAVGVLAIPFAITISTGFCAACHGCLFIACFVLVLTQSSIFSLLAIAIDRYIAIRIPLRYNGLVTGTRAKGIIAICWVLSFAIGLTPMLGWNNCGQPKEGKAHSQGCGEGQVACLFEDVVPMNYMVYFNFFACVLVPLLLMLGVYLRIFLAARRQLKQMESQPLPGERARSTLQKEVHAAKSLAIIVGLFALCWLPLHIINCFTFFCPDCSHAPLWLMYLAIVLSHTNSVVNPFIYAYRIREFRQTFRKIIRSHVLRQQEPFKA

B1: mini-Gs/q58 (other)
chain: MGHHHHHHENLYFQGIEKQLQKDKQVYRATHRLLLLGADNSGKSTIVKQMRILHGGSGGSGGTSGIFETKFQVDKVNFHMFDVGGQRDERRKWIQCFNDVTAIIFVVDSSDYNRLQEALNDFKSIWNNRWLRTISVILFLNKQDLLAEKVLAGKSKIEDYFPEFARYTTPEDATPEPGEDPRVTRAKYFIRDEFLRISTASGDGRHYCYPHFTCAVDTENARRIFAAVKDTILQLNLKEYNLV
[1]
  binding result: no binding (tested: 25 µM)
[2]
  binding result: no binding
[3]
  apparent Tm of DDM-solubilised 3H-NTS-bound NTSR1 (alone 24.9 °C): 25.1 °C
[4]
  apparent Tm of DM-solubilised 3H-NECA-bound A2AR (alone 26.9 °C): 26.9 °C

B2: Mini-Gs414 (other)
chain: GIEKQLQKDKQVYRATHRLLLLGADNSGKSTIVKQMRIYHGGSGGSGGTSGIFETKFQVDKVNFHMFDVGGQRDERRKWIQCFNDVTAIIFVVDSSDYNRLQEALNDFKSIWNNRWLRTISVILFLNKQDLLAEKVLAGKSKIEDYFPEFARYTTPEDATPEPGEDPRVTRAKYFIRDEFLRISTASGDGRHYCYPHFTCAVDTENARRIFNDCRDIIQRMHLRQYELL
[5]
  ΔTm of 3H-NECA-bound A2AR with mini-Gs414 against A2AR only, in decylmaltoside (DM): 6.8 °C
  ΔTm of 3H-NECA-bound A2AR with mini-Gs414 against A2AR only, in dodecylmaltoside (DDM): 7.2 °C
  ΔTm of 3H-NECA-bound A2AR with mini-Gs414 against A2AR only, in octylglucoside (OG): 13.4 °C
[6]
  apparent Tm of DM-solubilised NECA-bound A2AR: 32.9 °C

B3: mini-Gs/q70 (other)
chain: B2 chain with Y39L, R215K, Q219L, R220Q, H222N, Q225E, E227N, L229V
notes: also called mini-Gs/q chimera; Gs/q construct 70
[1]
  binding result: no binding (tested: 25 µM)
[7]
  binding result: no binding
[8]
  apparent Tm of digitonin-solubilised 125I-AngII-bound AT1R (alone 22.6 °C): 30.7 °C
[3]
  apparent Tm of DDM-solubilised 3H-NTS-bound NTSR1 (alone 24.9 °C): 32.5 °C
[4]
  apparent Tm of DM-solubilised 3H-NECA-bound A2AR (alone 26.9 °C): 27.5 °C

B4: Mini Gs393 (other)
chain: B2 chain with Y39L
[9]
  apparent Tm of β1AR-WT complex in decylmaltoside (receptor alone 20.4 °C): 30.5 °C
  apparent Tm of β1AR-WT complex in dodecylmaltoside (receptor alone 25.9 °C): 34.1 °C
  apparent Tm of β1AR-WT complex in nonylglucoside (uncoupled receptor did not survive): 24.7 °C
  apparent Tm of β1AR-WT complex in octylglucoside (uncoupled receptor did not survive): 19.7 °C
